# Measurements: the DeepSol protein solubility set
# Test: soluble on expression in E. coli; label from the status in PepcDB or PDB records
row,Sequence,soluble on expression in E. coli
1,MRKYRLSEEQRAFSYQEDGTKKSVLLRQIIAISDFNDVIAGTAGGWIDRETVLAQEGNCWIYDQNAIAFGGTVISGNTRITGTSVLWGEVYATDNVWIDNSEISQGAYISDSVTIHDSLVYVQCRIFGHALIDQHSMIVAAQGLTPDHQLLLQIYDRARVSASRIVHQAQIYGDAVVRYAFIEHRAEVFDFASVEGNEENNVWLCDCAKVYGHAQVKAGIEEDAIPTIHYSSQVAEYAIVEGNCVLKHHVLIGGNAVVRGGPILLDEHVVIQGESRITGAVIIENHVELTDHAVVEAFDGDTVHVRGPKVINGEERITRTPLAGLLLEHHHHHH,not soluble
2,MKSMTGFGKKTIQNENYQLDIEVKSVNQRFLDIQLRMPKELNAYELVIRQVIKRTLKRGRVEVYVNLQKIGNNQKEVRVQWDLIDQLLTSVDQHLKEKYPEATFDAGDTVNHLLKQNDFVEIVEAEIVDQTFEPFLVQAFEAAIASLDQSRVQEGTQIKQVLLDYVAVLTQSIQELQAFVGVFEQEYRQRFEAKLNEWLGSQVDETRLLTEMAILLEKGDIHEELDRLDIHIDKLHQLLDETEPVGRELDFLIQEMNREVNTIGSKSSPIEIKNSVVQMKTTLEKIREQIQNVE,not soluble
3,MNNTYNEKTHTLIKQLLKKFSPKVPGFAYMASFDSGVTYKGAVGLASIEENLPITTKSVFNIASVSKQFTAFSILLLEQEGRLSLDDSIVKFVPSIGTYAEPVTLRHLIHHTGGLVDYMELAHAENIEFTDILTVEQSLKHLNGHQIARFPVGTKFEYSNTGYFLLSLVVEKVSGKSLRQFAKERIFDSLNMKDTTIVDCYPTTISIARGYSKNEQGAYMVYESPWEHTGDGAVHATVEDLVKWGENLTTGTVGGKELVKRMSEIGPEISPTRETIIANEDYAFGLRLAEGFNCRYLEHSGSWAGYRSYFMRFPKEYLTVVVLSNYDGFDSKKYANEIAGIILEK,not soluble
4,MSLAAIDKTTVATVNGEKITLGEVDSHLKGVFAQMKSQYGDKYMDDPQVAQQILQQRQSVVQGLVTDKVLGIEADKLGIKPSEEEIKKKVDEQFENIKKGMGDNFDKALEAEGYTEDTFKDVIKNQVINQAVQDYIIKDVKVTDEDAQKYYDENKQQFVAKDSGVLTKHLLFENEEEAQKAYDEIQSGKTTFNDLFTKYENNKSENKKPIAENLGVVPAENSGLVQEFVDGLKPLKEGEISKPIKTQFGYHIIQAGATYEKGAQLPFDDVKSQIIQILKQQKDSEKFKADMDQWKKDLNVKVYDDKLQEGLKISEGHHHHHH,soluble
5,MEPSSLELPADTVQRIAAELKCHPTDERVALHLDEEDKLRHFRECFYIPKIQDLPPVDLSLVNKDENAIYFLGNSLGLQPKMVKTYLEEELDKWAKIAAYGHEVGKRPWITGDESIVGLMKDIVGANEKEIALMNALTVNLHLLMLSFFKPTPKRYKILLEAKAFPSDHYAIESQLQLHGLNIEESMRMIKPREGEETLRIEDILEVIEKEGDSIAVILFSGVHFYTGQHFNIPAITKAGQAKGCYVGFDLAHAVGNVELYLHDWGVDFACWCSYKYLNAGAGGIAGAFIHEKHAHTIKPALVGWFGHELSTRFKMDNKLQLIPGVCGFRISNPPILLVCSLHASLEIFKQATMKALRKKSVLLTGYLEYLIKHNYGKDKAATKKPVVNIITPSHVEERGCQLTITFSVPNKDVFQELEKRGVVCDKRNPNGIRVAPVPLYNSFHDVYKFTNLLTSILDSAETKN,soluble
6,MKIQFNRFLTRSLLTAALTGAASMAAAATMEVYKSPTCGCCAKWVDHMRDNGFTVNIHDIGNDEARAEAGILPELGSCHTALVNGYAIEGHVPADDIKQLLKERPRAVGLSAPGMPHGSPGMETGRVDSYNVLLIRKPGDKRSATEIYNRYGPGKSGAAEKTSENSTTDSVLRLK,not soluble
7,MQLASRFGHVNQIRRDRPLTREELMQVVPSVFGEDKHTSRSENYTWIPTITVLESLQREGFQPFFACQTRVRDPGRRGYTKHMLRLRRDGEINGQHVPEIILLNSHDGTSSYQMLPGYFRFVCQNGCVCGQSLGEVRVPHRGNVVEKVIEGAYEVVGVFDRIEEKRDAMQSLVLPPLARQALAQAALTYRYGDEHQPVTTADILTPRRREDYGKDLWSAYQTIQENMLKGGISGRSAKGKRIHTRAIHSIDTDIKLNRALWVMTETLLENMR,not soluble
8,MSRPFTGATLCTTIAPHCSRTTAMTTLPAASPEALATSQALCGRISQAIAEAGGWIPFSHYMELALYAPGMGYYAAGSRKLGEDGDFVTAPELTPLFGQSLARQLAELLPQTAGAVYEFGAGTGKLAIDLLAELKALNQLPAKYVILDLSPDLIDRQRQNIRAALPHLADRVEWASSLPDAIDGIVIGNELLDAMPCEMVFRDEDRRLRQRGVTVRDGALCYEDRDFADSRLAELAAQLLPDIPRYETEISLANRAFIATVAGALTRGAILMIDYGHAASEYYHPERSMGTLLGHYRHHTVQDPFYLPGLMDLTCHVDFTAVAQSGIDAGLDLIGYTSQAQFLVNCGLIERLQTLDADDVKAYLPIAKAAQRLLSPQEMGETFKAIGFGKGVSIDWLGFARGDRCYTLLEHHHHHH,soluble
9,MEQLQVGQVTLTWLNGGVTHLDGGAMFGVVPKPLWSKKYPPNDQNQIELRTDPILVEAGGKRLLIESGIGNGKLTDKQKRNFGVTEESSLDESLAALGLTRGDIDIVIMTHLHFDHACGLTVWEDGRLVPAFPRAAIITSDVEWEEMRAPNIRSRNTYWKENWEPIAEQVIPFTKETEVVSGIRLIHTGGHSAGHAIVLIESDGEMAIHLGDLLGTHAHQNVLWVMAYDDYPMDSIFAKQRWLPYGIERNAWFTFYHDAYYRAVKWREDGTIAEQVKRNRPTLLEHHHHHH,soluble
10,MGSDKIHHHHHHMNLTHRQLTMFRAIMLHGNLGRAADACASSQPTLSRELGRLEQLLGFNLFDRVRGRLRPTVRALALMQEVERSFIGLEQIAARASELRTQATGRLRIACLPALAHALVPRALVYLSHTHPELGVSVHPLESPWLEQAMSEQRFDLGLSETQKAPAGVTLQPLLKVNEVAVLPRDHSLCRKARLQPRDFTGERFISLAVGDPYRTAIDAMFEDAKVHRVTLLETTSSVAVCAMVRQGLGVAIVNPFTAMELSGPDLVVRSLTVAIGYQVNMLLPEIAAPHPLQSVLADTVRKASADLSHLDQCFY,not soluble
11,MTDSTTLYPVFAEELLPGGGHRSFILKRGELLRLTDLNGNANVSLTLLNAHEKTERLNLPDSLKCQHTAKLSNGHCLYSDMGRVLAAIVTDTCGWSDSIGGVLNAQEVAEKYGQGRYQELRNGFFRNGVDNLLVELGKWGLGLSDLLMTLNLFSRVDVSETGTLHFAPNNSKAGDYIELYAPMDTLVVLTALQHPMDPNPDYVPQPLTLSWMKADASVAEHCRTSRPENERGFINTDRLFALEHHHHHH,soluble
12,MGSDKIHHHHHHMIIDINMHHLPEDLFTNEKILDGFLSTAPRSYGEIASLGTIPETGKRQIILEKPKGYQNLNYVEGDYSLEAKLQAMDDNGVDKAILRVPVWQEWLKVDTCKIVNDNAAEMCKRSAGRLYATACVPPWGGKDNLYELERCVKDLGMVGVQLACHYGQLYLDDEAFKPYMKVLNELNVPVVVHHTPLPVYWQSVYEYTNLRRELGRIIDQATAVGRELFSGMFEEFPNLKFIHTMFGGNWFANYNLLMPHKGKKEEAMLRLDISESDRIKMYLKNNIYFDMTHPASWGKDQVECAIKVCGADHVLFGSSFPVFYNWMSQGIECVKSLDITEKERELITSGNAIRLFKLDV,not soluble
13,MKSTDNSKPVPFFRGKLKFFQPKEHKISVDLVLFLSKIKPPKRNYRIIDLGAGFGFLSITLAKKYGVKVVAFEYDERMVKLLRKNVKLNGVEHLVEVVEGDIKEIEKHLSRGSFNLVVSNPPFYPINYSPNPEPYHFEVYATLKDFVRASSYLLKDGGELYLLSPCFRLYELTEYLSNFNLPLRKLSLIYPTPLKRARLAITVSVKNVKGQLECDKPLIINKENGEYTEEVKQLLENFL,soluble
14,MKLTILRLEHFSAQDQIDLGKIWPEYSASSLSVDETHRIYAARFNERLLGAVRVTLSGTQGALDSLRVREITRRRGVGQYLVEEVIRDNPNVSSWWMADVGVEDRSVMAAFMQALGFTAQHDGWEKR,not soluble
15,MILGICGSPRKQATEHVLERALSMLEDDGLETEFFTVRGKNISPCRHCDYCLRNKECVLKDDMFPLYELLRRAAGIIIATPVYNGGVSAQIKAIMDRCRALGAEDYDSLRGKVGMGIAVGGDRCGGQEPALMQIHTFYILNGVIPVSGGSFGANLGACFWSRDTLEVLKRTHMDSKPSKRPWACLKGSWTLKDPEILFYSEFILEHHHHHH,not soluble
